The values that follow come from patent US20160137713A1.

Experiment [1] addresses human FcRn on HEK293 cells (human) (UniProt P55899). Nature of the experiment: FACS competition on hFcRn HEK293 cells at pH 6.0; remaining binding of 100 nM Alexa488-labeled hIgG1 (m14) with 250 nM unlabeled competitor, percent of the tube without competitor.
For experiment [2] the target is unchanged. Nature of the experiment: FACS on hFcRn-overexpressing HEK293 cells at pH 7.4, Alexa488 anti-human goat antibody; hIgG1 is the reference of the ratio.
Experiment [3] shares this target. The experiment can be described thus: FACS on hFcRn-overexpressing HEK293 cells at pH 6.0, Alexa488 anti-human goat antibody; hIgG1 is the reference of the ratio.
Experiment [4] shares this target. The experiment can be described thus: FACS competition on hFcRn HEK293 cells at pH 6.0; remaining binding of 100 nM Alexa488-labeled hIgG1 (m14) with 500 nM unlabeled competitor, percent of the tube without competitor.
The target is the same in experiment [5]. The experiment can be described thus: FACS competition on hFcRn HEK293 cells at pH 6.0; remaining binding of 100 nM Alexa488-labeled hIgG1 (m14) with 1000 nM unlabeled competitor, percent of the tube without competitor.

Chain of human FcRn on HEK293 cells (human) (P55899 24-365, chain 1 of 2): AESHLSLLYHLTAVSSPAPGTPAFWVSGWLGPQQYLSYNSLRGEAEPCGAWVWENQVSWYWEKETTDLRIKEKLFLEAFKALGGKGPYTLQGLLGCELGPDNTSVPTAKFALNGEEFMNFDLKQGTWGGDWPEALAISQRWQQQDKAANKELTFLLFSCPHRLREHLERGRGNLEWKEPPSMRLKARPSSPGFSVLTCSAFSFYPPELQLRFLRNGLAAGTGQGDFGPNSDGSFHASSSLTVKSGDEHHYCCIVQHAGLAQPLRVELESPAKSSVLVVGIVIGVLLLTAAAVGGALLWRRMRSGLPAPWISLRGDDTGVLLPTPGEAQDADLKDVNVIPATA
Chain of human FcRn on HEK293 cells (human) (P61769 21-119, chain 2 of 2, further chain): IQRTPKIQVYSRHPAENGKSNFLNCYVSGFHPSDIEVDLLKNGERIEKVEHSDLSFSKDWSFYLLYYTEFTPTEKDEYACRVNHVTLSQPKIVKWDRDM

Consider human IgG1 (antibody), for which the Relative MFI(%) at 250nM in experiment [1] was 87.4%. Moreover, the Relative MFI (Fold) in experiment [2] and in experiment [3] was 1 fold each time. Also, the Relative MFI(%) at 500nM in experiment [4] is 69.9%. This substance also had a Relative MFI(%) at 1000nM in experiment [5] of 69.1%.
